Tests used:
[1] = target: XENP38865 (IL18×Fab-Fc fusion, IL18 4CS/K53A, silent Fv) (human); test: cell-based or functional assay
[2] = target: XENP37827 (IL18×Fab-Fc fusion with WT-4CS IL18 and a silent Fv) (human); test: cell-based or functional assay
XENP37827 (IL18×Fab-Fc fusion with WT-4CS IL18 and a silent Fv) (human), sequence (Q14116 other isoform, or with tags, fused parts or gaps): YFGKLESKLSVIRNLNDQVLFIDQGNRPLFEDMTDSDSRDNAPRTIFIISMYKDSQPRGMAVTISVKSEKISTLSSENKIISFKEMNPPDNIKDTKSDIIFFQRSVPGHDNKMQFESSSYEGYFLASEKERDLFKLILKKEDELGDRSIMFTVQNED

XENP38865 (IL18×Fab-Fc fusion, IL18 4CS/K53A, silent Fv) (human), sequence (Q14116 other isoform, or with tags, fused parts or gaps K53A K53A): as the sequence (Q14116 other isoform, or with tags, fused parts or gaps) above, with K53A counted along it

## IL18 binding protein (IL18BP) (from UniProt O95998 31-194)
[1]
  IC50 of dose dependent inhibition of KG-1 cell activation (induction of PD-L1 expression) by IL18BP at fixed concentration (10 nM) of the IL18 fusion: 88.7 nM
[2]
  IC50 of dose dependent inhibition of KG-1 cell activation (induction of PD-L1 expression) by IL18BP at fixed concentration (10 nM) of the IL18 fusion: 5.5 nM

Source: patent US20240166705A1
